Test results as given in the supplement of paper PMC10724198.

Columns and labels:
Saccharomyces cerevisiae [1] = assay: protein stability index of tFT-peptide fusion in wild type (PSI (0-1 scale)); higher = more stable (slower turnover); settings: genetic background: wild type
Saccharomyces cerevisiae [2] = assay: protein stability index of tFT-peptide fusion in deletion strain of DAS1 (PSI (0-1 scale)); higher = more stable (slower turnover)
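Throughout, for protein stability index of tFT-peptide fusion in deletion strain of DAS1: PSI is a weighted mean of each variant's read distribution over the sorted stability bins, computed only for variants having over 10 reads in total.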
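Throughout, for protein stability index of tFT-peptide fusion in wild type: PSI derived as read-weighted mean over the 8 sorting bins, only variants exceeding 10 total reads kept, mCherry placed adjacent to the peptide and sfGFP distal.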

Row | Sequence | protein stability index (Saccharomyces cerevisiae [1]) | protein stability index (Saccharomyces cerevisiae [2])
1 | QSLAASFWRVVG | 0.13 | 0.698
2 | RAIQPLPVQFLN | 0.121 | 0.674
3 | RIIQPLPVQFLN | 0.0603 | 0.598
4 | RLIEPLPVQFLN | 0.076 | 0.578
5 | RLIPPLPVQFLN | 0.0667 | 0.576
6 | RLIQPLLVQFLN | 0.0592 | 0.575
7 | RLIQPLPAQFLN | 0.0736 | 0.602
8 | RLIQPLPHQFLN | 0.0684 | 0.645
9 | RLIQPLPNQFLN | 0.21 | 0.703
10 | RLIQPLPPQFLN | 0.132 | 0.521
11 | RLIQPLPVAFLN | 0.0928 | 0.552
12 | RLIQPLPVQFLND | 0.652 | 0.671
13 | RLIQPLPVQFLNK | 0.647 | 0.676
14 | RLIQPLPVQFLNM | 0.584 | 0.655
15 | RLIQPLPVQFLR | 0.668 | 0.58
16 | RLIQPLPVQFLS | 0.156 | 0.606
17 | RLIQPLPVQHLN | 0.1 | 0.564
18 | RLIQPLPWQFLN | 0.0707 | 0.699
19 | RLIQPRPVQFLN | 0.0515 | 0.613
20 | RLIQWLPVQFLN | 0.071 | 0.613
21 | RLIWPLPVQFLN | 0.0399 | 0.57
22 | RRGAVGGWRLVG | 0.16 | 0.687
23 | RTIQPLPVQFLN | 0.101 | 0.629
24 | SDKRNHLIKLLN | 0.156 | 0.607
25 | SRGAVGGWRLVG | 0.171 | 0.677
26 | SRWRVGLWRGAS | 0.458 | 0.672
27 | SSLAASFWRVVG | 0.16 | 0.692
28 | TSMRWTFRYWVN | 0.0899 | 0.696

Row | Sequence | protein stability index (Saccharomyces cerevisiae [1]) | protein stability index (Saccharomyces cerevisiae [2])
29 | VRGAKGGWRLVG | 0.28 | 0.67
30 | VRGANGGWRLVG | 0.212 | 0.677
31 | VRGAQGGWRLVG | 0.191 | 0.701
32 | VRGAVAGWRLVG | 0.156 | 0.655
33 | VRGAVGGMRLVG | 0.592 | 0.677
34 | VRGAVGGWRCVG | 0.222 | 0.658
35 | VRGAVGGWRFVG | 0.142 | 0.674
36 | VRGAVGGWRHVG | 0.137 | 0.691
37 | VRGAVGGWRLFG | 0.333 | 0.694
38 | VRGAVGGWRLTG | 0.269 | 0.659
39 | VRGAVGGWRLVGM | 0.621 | 0.685
40 | VRGAVGGWRLVGQ | 0.701 | 0.667
41 | VRGAVGGWRLVGS | 0.174 | 0.67
42 | VRGAVGGWRLVW | 0.714 | 0.671
43 | VRGAVGGWRNVG | 0.364 | 0.676
44 | VRGAVGGYRLVG | 0.658 | 0.681
45 | VRGAVGIWRLVG | 0.156 | 0.681
46 | VRGAVMGWRLVG | 0.154 | 0.71
47 | VRGAVPGWRLVG | 0.149 | 0.678
48 | VRGAVTGWRLVG | 0.157 | 0.684
49 | VRGHVGGWRLVG | 0.131 | 0.672
50 | VRWAVGGWRLVG | 0.0824 | 0.685
51 | VSLAASFWRVVG | 0.102 | 0.676
52 | VYGAVGGWRLVG | 0.137 | 0.677
53 | WTSCGYKFRTNN | 0.173 | 0.699
54 | YKILRQKMNHQN | 0.196 | 0.668
55 | YVVYLSCVACIN | 0.0134 | 0.0254
